Assay results reported in publication PMC6803030 (Inorganic chemistry, 2019).
Where two headings read alike, the source gives them in different places. Blank lines part the entries; values can stand above or below the binder they belong to.

Key:
Assay in all cases: SEC
mS100A9(H103A)(H105A) = molecular target: T1, mS100A9(H103A)(H105A) (murine, UniProt P31725 2-113, H103A | H105A)
T1 sequence (looked up): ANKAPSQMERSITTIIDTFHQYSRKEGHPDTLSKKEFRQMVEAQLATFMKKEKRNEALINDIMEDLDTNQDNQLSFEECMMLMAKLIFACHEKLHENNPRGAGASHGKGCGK

mS100A9(H103A)(H107A) = molecular target: T2, mS100A9(H103A)(H107A) (murine, UniProt P31725 2-113, H103A | H107A)
T2 sequence (looked up): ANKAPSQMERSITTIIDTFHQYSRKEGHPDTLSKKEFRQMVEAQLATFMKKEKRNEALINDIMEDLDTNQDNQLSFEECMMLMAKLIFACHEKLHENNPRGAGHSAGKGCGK

mS100A9(H103A) = molecular target: T3, mS100A9(H103A) (murine, UniProt P31725 2-113, H103A)
T3 sequence (looked up): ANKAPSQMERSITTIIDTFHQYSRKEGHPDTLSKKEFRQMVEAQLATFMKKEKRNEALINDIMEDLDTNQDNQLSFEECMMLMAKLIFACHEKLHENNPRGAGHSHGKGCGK

mS100A9(H105A)(H107A) = molecular target: T4, mS100A9(H105A)(H107A) (murine, UniProt P31725 2-113, H105A | H107A)
T4 sequence (looked up): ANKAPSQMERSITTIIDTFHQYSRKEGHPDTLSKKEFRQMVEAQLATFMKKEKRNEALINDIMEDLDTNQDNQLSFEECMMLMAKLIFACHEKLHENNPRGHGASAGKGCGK

[1] = molecular target: T5, mS100A9 (murine S100A9 subunit of calprotectin) (murine, UniProt P31725 1-113)
T5 sequence (looked up): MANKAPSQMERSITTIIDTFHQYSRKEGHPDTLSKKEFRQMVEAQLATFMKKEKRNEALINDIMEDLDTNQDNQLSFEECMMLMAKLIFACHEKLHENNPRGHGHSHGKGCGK

mS100A9(H107A) = molecular target: T6, mS100A9(H107A) (murine, UniProt P31725 2-113, H107A)
T6 sequence (looked up): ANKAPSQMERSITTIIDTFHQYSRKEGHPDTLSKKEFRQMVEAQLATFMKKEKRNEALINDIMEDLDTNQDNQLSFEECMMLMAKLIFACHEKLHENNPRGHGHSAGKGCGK

mS100A9(H105A) = molecular target: T7, mS100A9(H105A) (murine, UniProt P31725 2-113, H105A)
T7 sequence (looked up): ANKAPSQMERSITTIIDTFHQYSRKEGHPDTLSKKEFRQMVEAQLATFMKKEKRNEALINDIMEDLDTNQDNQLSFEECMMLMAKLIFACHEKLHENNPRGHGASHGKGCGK

SEC [2] = molecular target: the molecule itself
SEC [3] = molecular target: the molecule itself; remark: listed apart in the source

binding result (mS100A9(H103A)(H105A)): binds
binding result (mS100A9(H103A)(H107A)): binds
binding result (mS100A9(H103A)): binds
binding result (mS100A9(H105A)(H107A)): binds
binding result [1]: binds
binding result (mS100A9(H107A)): binds
binding result (mS100A9(H105A)): binds
B1: mS100A8 (murine S100A8 subunit of calprotectin) (natural protein, UniProt P27005 1-89, looked up)
chain: MPSELEKALSNLIDVYHNYSNIQGNHHALYKNDFKKMVTTECPQFVQNINIENLFRELDINSDNAINFEEFLAMVIKVGVASHKDSHKE

B2: mCP(H105A), mS100A8/mS100A9(H105A) (complex, murine)
chain 1: MPSELEKALSNLIDVYHNYSNIQGNHHALYKNDFKKMVTTECPQFVQNINIENLFRELDINSDNAINFEEFLAMVIKVGVASHKDSHKE
chain 2: ANKAPSQMERSITTIIDTFHQYSRKEGHPDTLSKKEFRQMVEAQLATFMKKEKRNEALINDIMEDLDTNQDNQLSFEECMMLMAKLIFACHEKLHENNPRGHGASHGKGCGK
binding result (SEC [2]): binds

B3: murine calprotectin (mS100A8/mS100A9 heterodimer) (complex)
chain 1: MPSELEKALSNLIDVYHNYSNIQGNHHALYKNDFKKMVTTECPQFVQNINIENLFRELDINSDNAINFEEFLAMVIKVGVASHKDSHKE
chain 2: MANKAPSQMERSITTIIDTFHQYSRKEGHPDTLSKKEFRQMVEAQLATFMKKEKRNEALINDIMEDLDTNQDNQLSFEECMMLMAKLIFACHEKLHENNPRGHGHSHGKGCGK
binding result (SEC [3]): binds

B4: mCP(H103A), mS100A8/mS100A9(H103A) (complex, murine)
chain 1: MPSELEKALSNLIDVYHNYSNIQGNHHALYKNDFKKMVTTECPQFVQNINIENLFRELDINSDNAINFEEFLAMVIKVGVASHKDSHKE
chain 2: ANKAPSQMERSITTIIDTFHQYSRKEGHPDTLSKKEFRQMVEAQLATFMKKEKRNEALINDIMEDLDTNQDNQLSFEECMMLMAKLIFACHEKLHENNPRGAGHSHGKGCGK
binding result (SEC [2]): binds

B5: mCP ∆His3Asp variant, mS100A8(H83A)(H87A)/mS100A9(H21A)(D31A) (complex, murine)
chain 1: MPSELEKALSNLIDVYHNYSNIQGNHHALYKNDFKKMVTTECPQFVQNINIENLFRELDINSDNAINFEEFLAMVIKVGVASAKDSAKE
chain 2: ANKAPSQMERSITTIIDTFAQYSRKEGHPATLSKKEFRQMVEAQLATFMKKEKRNEALINDIMEDLDTNQDNQLSFEECMMLMAKLIFACHEKLHENNPRGHGHSHGKGCGK
binding result (SEC [2]): binds

B6: mCP(H103A)(H105A), mS100A8/mS100A9(H103A)(H105A) (complex, murine)
chain 1: MPSELEKALSNLIDVYHNYSNIQGNHHALYKNDFKKMVTTECPQFVQNINIENLFRELDINSDNAINFEEFLAMVIKVGVASHKDSHKE
chain 2: ANKAPSQMERSITTIIDTFHQYSRKEGHPDTLSKKEFRQMVEAQLATFMKKEKRNEALINDIMEDLDTNQDNQLSFEECMMLMAKLIFACHEKLHENNPRGAGASHGKGCGK
binding result (SEC [2]): binds

B7: mCP(H105A)(H107A), mS100A8/mS100A9(H105A)(H107A) (complex, murine)
chain 1: MPSELEKALSNLIDVYHNYSNIQGNHHALYKNDFKKMVTTECPQFVQNINIENLFRELDINSDNAINFEEFLAMVIKVGVASHKDSHKE
chain 2: ANKAPSQMERSITTIIDTFHQYSRKEGHPDTLSKKEFRQMVEAQLATFMKKEKRNEALINDIMEDLDTNQDNQLSFEECMMLMAKLIFACHEKLHENNPRGHGASAGKGCGK
binding result (SEC [2]): binds

B8: mCP(H103A)(H107A), mS100A8/mS100A9(H103A)(H107A) (complex, murine)
chain 1: MPSELEKALSNLIDVYHNYSNIQGNHHALYKNDFKKMVTTECPQFVQNINIENLFRELDINSDNAINFEEFLAMVIKVGVASHKDSHKE
chain 2: ANKAPSQMERSITTIIDTFHQYSRKEGHPDTLSKKEFRQMVEAQLATFMKKEKRNEALINDIMEDLDTNQDNQLSFEECMMLMAKLIFACHEKLHENNPRGAGHSAGKGCGK
binding result (SEC [2]): binds

B9: mCP(H107A), mS100A8/mS100A9(H107A) (complex, murine)
chain 1: MPSELEKALSNLIDVYHNYSNIQGNHHALYKNDFKKMVTTECPQFVQNINIENLFRELDINSDNAINFEEFLAMVIKVGVASHKDSHKE
chain 2: ANKAPSQMERSITTIIDTFHQYSRKEGHPDTLSKKEFRQMVEAQLATFMKKEKRNEALINDIMEDLDTNQDNQLSFEECMMLMAKLIFACHEKLHENNPRGHGHSAGKGCGK
binding result (SEC [2]): binds
